Source: patent US10648979B2, “Molecular probes for detecting gram-negative bacteria in vitro and in vivo” (priority 2014, dated 2020)
Bridge positions count the residues as written; N and C are the ends. Square brackets hold non-standard residues; d marks the D form. Peptide text beside a SMILES is read from it. * marks the point of attachment. ξ: configuration not given here. NBD = O=[N+]([O-])c1ccc(*)c2nonc12; dDab = NCC[C@@H](N)C(=O)O; Dab = NCC[C@H](N)C(=O)O; AEEA = NCCOCCOCC(=O)O; ξDab = NCCC(N)C(=O)O

Assays:
[1] = tested on: panel of bacteria (P. aeruginosa, A. baumannii, S. maltophilia, K. pneumoniae, E. coli, H. influenzae, MRSA, MSSA, S. pneumoniae); experiment: In vitro labelling of bacteria by laser scanning confocal microscopy; type: cell-based
Method: (§1) In vitro labelling was assessed on benchtop confocal in the presence of compound with bacteria and labelling was compared to NBD-UBINle which served as a reference control for bacterial labelling. […] For the ex vivo and in vivo ovine lung experiments each compound was assessed in a control lung segment (instilled with 2 ml PBS) or a bacterial segment (instilled with 2 ml of 2 optical density of bacteria). Following bacterial instillation, the compound was administered to the segment of interest and this was imaged by probe based confocal laser endomicroscopy (FCFM).

bacteria in ovine lung = experiment: Automated image processing of entire FCFM videos from ovine lung; settings: 80 spots per frame threshold
Text: FIG. 19: Image Processing Algorithms delineate ‘positive’ and ‘negative’ frames from FCFM data A) raw data for a frame that is deemed positive or negative. B) Without pre-processing, spot-detection is ineffective. Following estimation of background noise C), high-pass filtering D) and appropriate thresholding E), the current algorithm detect minimal punctate signal in negative frames F).
Analysis of NBD-UBIdend videos with thresholding at 80 spots per frame and an arbitrary cut-off of 10% enables objective detection of bacteria using a combination of Laplacian of Gaussian (LoG) and Difference of Gaussians (DoG) positive frames. […]
We have begun to develop bespoke image analysis/processing strategies to perform rapid real-time objective analysis of the large datasets generated by the probe/FCFM platform. […] These signal and image processing algorithms will be rapidly iterated in readiness for clinical application, and we expect significant components of machine-learning to be incorporated into further optimisation of NBD-UBIdend and NBD-PMX datasets.
Spots are enhanced in an image by convolving with a LoG or DoG filter. […] Finally, spots are detected with LoG or DoG. […]

[2] = Stability in saline or BALF from patients with Acute Lung Injury (MALDI-TOF / FTMS); settings: incubated for 30 minutes
Method: FIG. 16: NBD-UBIdend is stable in ALI BALF. […] NBD-PMX is stable in ALI BALF.
Secondly we assessed stability of the probes in broncholalveolar lavage fluid (BALF) from patients with Acute Lung Injury (ALI) by Fourier Transform Mass Spectrometry (FTMS) and Matrix-Assisted Laser Desorption/Ionization Time-of-Flight Mass Spectrometry (MALDI-TOF MS) analysis. NBD-UBINle, NBD-UBIdend and NBD-PMX were incubated for 30 minutes with BALF (FIG. 16).
as §1
Probe was added to saline or pooled BALF from patients with ALI incubated for 30 minutes. A ZipTip (C-18, 0.2 μL) with 5 μL MeCN (with 0.1% TFA as an additive) followed by 20 μL of H2O was washed. The ZipTip was loaded with the sample, washed and eluted into 5 μL of 80% aq. MeCN (with 0.1% TFA as an additive). The sample was analysed by MALDI-TOF (PerSeptive Biosystems Voyager DETMSTR MALDI-TOF mass spectrometer (Applied Biosystems, Foster City, Calif.)).

[3] = water
[4] = Emission spectra of probes in PBS or DMSO (hydrophobic environment); type: physicochemical; settings: excited at 488 nm; NBD-UBIdend 5 μM, NBD-UBINle 15 μM, NBD-PMX 10 μM
Method: A) Emission spectra shown for NBD-UBIdend (5 μM) and NBD-UBINle (15 μM) in the presence of PBS or DMSO (hydrophobic environment) when excited at 488 nm wavelength. B) Emission spectra shown for NBD-PMX (10 μM) in the presence of PBS or DMSO (hydrophobic environment) when excited at 488 nm wavelength. The fluorescence of both probes greatly increases under hydrophobic conditions as would be present upon binding to the bacterial membrane target.
To confirm the fluorescent reporter NBD retains its characteristics when coupled with our peptide moieties we measured the fluorescence of the compounds in conditions to mimic a hydrophobic environment (DMSO).

PA3284 = experiment: Bacterial labelling in the presence or absence of ovine lavage (confocal); type: cell-based, Pseudomonas aeruginosa; settings: 1 μM
[5] = Rodent single dose intratracheal toxicity assessment; type: in vivo, Mice; set-up: Creatinine / Bilirubin / Albumin: unit not given here
[6] = tested on: bacteria on human lung tissue; experiment: Detection of bacteria in the presence of human lung tissue autofluorescence (FCFM, confocal, FLIM); settings: FCFM and benchtop confocal
Text: FIG. 21: Bacteria detected in the presence of human lung tissue autofluorescence. […] B) Live confocal microscopy images (merge) showing merge images of nucleic acid counterstain (red) with no NBD-PMX labelling. Bacteria in right panel can be clearly seen, labelled with NBD-PMX and above the background fluorescence.
FIG. 24: Fluorescence Life Time Imaging easily distinguishes lung tissue from bacteria. […] Imaging performed using NBD-UBIdend and S. aureus on human lung tissue.

With `CC(C)C[C@@H]1NC(=O)[C@@H](Cc2ccccc2)NC(=O)[C@@H](CCN)NC(=O)C(NC(=O)[C@H](CCN)NC(=O)[C@@H](NC(=O)COCCOCCNc2ccc([N+](=O)[O-])c3nonc23)[C@@H](C)O)CCNC(=O)[C@@H]([C@H](C)O)NC(=O)[C@H](CCN)NC(=O)[C@H](CCN)NC1=O` (some centres unmarked) [NBD-PMX] ({NBD-AEEA}-T[Dab][ξDab][dDab][dF]L[Dab][Dab][dT]; lactam 3-C) the “labelling of Gram-positive bacteria” value ([1]; 1 μM) was “minimal/no labelling”, the “fluorescence on Gram-negative versus Gram-positive bacteria” value ([1]; 1 μM, p<0.05) was “significantly higher fluorescence on Gram-negative bacteria” and the bacterial labelling ([1]; Pseudomonas aeruginosa (PA) incubated with A549 cells) was “allows bacterial labelling”. For the same compound, the “detection by automated image processing (percentage positive frames, YES/NO)” value (bacteria in ovine lung) was “unequivocal detection of bacteria and Gram status”, the “stability in ALI BALF” value [2] was “demonstrate stability” and the stability in saline [2] was “readily identified in both saline and BALF incubated samples”. The Solubility [3] was “Fully soluble in water”, the “fluorescence in DMSO compared to PBS” value [4] was “significant increase in fluorescence” and the “fluorescence in ovine lavage versus absence of lavage” value (PA3284) was “no significant reduction of fluorescence intensity”. It also gave an ALP ([5]; 48 hours) of 107.7 ± 17.3 u/l, an ALT ([5]; 48 hours) of 36.0 ± 9.0 u/l and an Albumin ([5]; 48 hours) of 23.7 ± 0.3. For the same compound, the BALF ([5]; 48 hours) was 509.0 ± 270.2 Cells/ul, the Bilirubin ([5]; 48 hours) was 1.2 ± 0.4 and the Creatinine ([5]; 48 hours) was 16.3 ± 8.8. The “Cytospin (% of Neutrophils)” value ([5]; 48 hours) was 0%, the “Cytospin (% of Red Blood Cells)” value ([5]; 48 hours) was 3.9% and the PenH value ([5]; 48 hours) was 0.5 ± 0.05. For the same compound, the “Cytospin (% of Mononuclear cells)” value ([5]; 48 hours, single intratracheal 100 μg/25 g mouse) was 96.1%, the ALP ([5]; 14 days) was 126.3 ± 8.5 u/l and the ALT ([5]; 14 days) was 40.3 ± 4.8 u/l. The Albumin ([5]; 14 days) was 25.3 ± 0.7, the BALF ([5]; 14 days) was 542.0 ± 84.7 Cells/ul and the Bilirubin ([5]; 14 days) was 1.2 ± 0.4. The Creatinine ([5]; 14 days) was 9.7 ± 0.3, the “Cytospin (% of Neutrophils)” value ([5]; 14 days) was 0% and the “Cytospin (% of Red Blood Cells)” value ([5]; 14 days) was 2.3%. The PenH value ([5]; 14 days) was 0.5 ± 0.07, the “Cytospin (% of Mononuclear cells)” value ([5]; 14 days, single intratracheal 100 μg/25 g mouse) was 93.0% and the “organ toxicity (histology)” value ([5]; single instillation, 48 hours and 14 days, compared to PBS control) was “no organ toxicity”. For the same compound, the toxicity ([5]; single intratracheal 100 μg/25 g mouse, 48 hours and 14 days) was “no toxicity” and the “detection of bacteria above human lung autofluorescence” value [6] was “demonstrating bacterial signal”.
